Numbered stars: 1 amine (or outer) side, 2 acyl side, 3 side chain; on linkers, the order of the positions; unused ones are H or OH. Bridge positions count the residues as written; N and C are the ends. Side chains are listed from the residue outwards. Ends that are not written are not given here. * marks the point of attachment. C20 diacid = O=C(O)CCCCCCCCCCCCCCCCCCC(=O)*; γGlu = O=C(O)[C@H](CCC(=O)[*:2])N[*:1]; AEEA = NCCOCCOCC(=O)O
T1: rat amylin receptor (rat calcitonin receptor + rat RAMP 3) (rat, UniProt P32214 25-516; Q9JJ73 23-147)
T1 construct: whole, on cells; membranes of transiently transfected BHK tk'ts 13 cells (Assay VI); also called rAmylin-R; rat amylin 3(a) receptor
T1 sequence (looked up) 1: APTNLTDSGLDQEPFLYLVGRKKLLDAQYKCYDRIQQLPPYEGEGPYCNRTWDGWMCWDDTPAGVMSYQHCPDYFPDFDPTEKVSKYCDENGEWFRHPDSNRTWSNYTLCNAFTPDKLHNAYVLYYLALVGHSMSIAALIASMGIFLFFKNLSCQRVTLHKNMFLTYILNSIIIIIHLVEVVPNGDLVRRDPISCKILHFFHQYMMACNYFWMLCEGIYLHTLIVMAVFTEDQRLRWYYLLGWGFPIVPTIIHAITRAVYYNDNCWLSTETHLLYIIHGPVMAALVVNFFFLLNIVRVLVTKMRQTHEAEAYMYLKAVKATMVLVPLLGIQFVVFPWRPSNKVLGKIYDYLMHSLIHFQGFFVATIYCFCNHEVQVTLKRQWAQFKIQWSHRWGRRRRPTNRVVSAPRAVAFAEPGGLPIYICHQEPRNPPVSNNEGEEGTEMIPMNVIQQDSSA
T1 sequence (looked up) 2: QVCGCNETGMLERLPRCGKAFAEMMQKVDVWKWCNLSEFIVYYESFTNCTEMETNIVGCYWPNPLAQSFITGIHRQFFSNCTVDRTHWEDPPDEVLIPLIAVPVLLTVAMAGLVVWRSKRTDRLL

T2: human calcitonin receptor (human, UniProt P30988 25-474)
T2 construct: whole, on cells; membranes of stably transfected BHK cells (Assay VII); also called hCTR; hCT
T2 sequence (looked up): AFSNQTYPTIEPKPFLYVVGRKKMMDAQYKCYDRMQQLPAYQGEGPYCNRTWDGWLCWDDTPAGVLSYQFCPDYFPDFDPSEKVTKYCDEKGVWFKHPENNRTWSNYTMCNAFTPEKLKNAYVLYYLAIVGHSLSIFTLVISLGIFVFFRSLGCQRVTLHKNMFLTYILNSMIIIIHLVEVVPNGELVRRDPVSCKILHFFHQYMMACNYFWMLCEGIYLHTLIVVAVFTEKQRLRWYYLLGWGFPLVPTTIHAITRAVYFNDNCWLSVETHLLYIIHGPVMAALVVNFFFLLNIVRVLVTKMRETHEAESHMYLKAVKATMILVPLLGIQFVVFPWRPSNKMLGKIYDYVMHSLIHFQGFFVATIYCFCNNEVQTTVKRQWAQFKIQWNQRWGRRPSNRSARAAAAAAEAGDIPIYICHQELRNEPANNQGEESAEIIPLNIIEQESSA

T3: rat calcitonin receptor (rat, UniProt P32214 25-516)
T3 construct: whole, on cells; membranes of transiently transfected BHK tk'ts 13 cells (Assay VIII); also called rCTR; rat calcitonin (a) receptor
T3 sequence (looked up): T1 sequence (looked up) 1

B1: N^ε1-19-carboxynonadecanoyl-[Arg17,Pro21,Pro27]-h-amylin (peptide)
peptide: K(C20 diacid)CNTATCATQRLANFLRHSSPNFGAIPSSTNVGSNTY-NH2
modifications: disulfide 2-7 (inferred)
notes: analogue of human amylin; also called compound 42
B2: N^ε1-[2-[2-[2-[[(4S)-4-carboxy-4-(19-carboxynonadecanoylamino)butanoyl]amino]ethoxy]ethoxy]acetyl]-[Arg17,Pro21,Pro27]-h-amylin (peptide)
peptide: K([AEEA-γGlu-C20 diacid])CNTATCATQRLANFLRHSSPNFGAIPSSTNVGSNTY-NH2
modifications: disulfide 2-7 (inferred)
notes: analogue of human amylin; also called compound 41
B3: N^α1-[(4S)-4-carboxy-4-(19-carboxynonadecanoylamino)butanoyl]-[Glu14,Arg17,Pro21,Pro25,Pro28,Pro29]-h-amylin (peptide)
peptide: {C20 diacid-γGlu}-KCNTATCATQRLAEFLRHSSPNFGPILPPTNVGSNTY-NH2
modifications: disulfide 2-7 (inferred)
notes: analogue of human amylin; also called compound 6
B4: N^ε-[(4S)-4-carboxy-4-(19-carboxynonadecanoylamino)butanoyl]Lys[Arg1,Arg17,Pro21,Pro27,His35]-h-amylin (peptide)
peptide: K([γGlu-C20 diacid])RCNTATCATQRLANFLRHSSPNFGAIPSSTNVGSHTY-NH2
modifications: disulfide 3-8 (inferred)
notes: analogue of human amylin extended by Lys at the N-terminus; also called compound 44
B5: N^-1-[(4S)-4-carboxy-4-(19-carboxynonadecanoylamino)butanoyl]-Gly[Arg1,Arg17,Pro21,Pro27]-h-amylin (peptide)
peptide: {C20 diacid-γGlu}-GRCNTATCATQRLANFLRHSSPNFGAIPSSTNVGSNTY-NH2
modifications: disulfide 3-8 (inferred)
notes: analogue of human amylin extended by Gly at the N-terminus; also called compound 46
B6: N^-1-[(4S)-4-carboxy-4-(19-carboxynonadecanoylamino)butanoyl]-Gly[Arg1,Arg17,Pro21,Pro27,His35]-h-amylin (peptide)
peptide: {C20 diacid-γGlu}-GRCNTATCATQRLANFLRHSSPNFGAIPSSTNVGSHTY-NH2
modifications: disulfide 3-8 (inferred)
notes: analogue of human amylin extended by Gly at the N-terminus; also called compound 47
B7: N^ε1-[2-[2-[2-(19-carboxynonadecanoylamino)ethoxy]ethoxy]acetyl]-[Arg17,Pro21,Pro27]-h-amylin (peptide)
peptide: K([AEEA-C20 diacid])CNTATCATQRLANFLRHSSPNFGAIPSSTNVGSNTY-NH2
modifications: disulfide 2-7 (inferred)
notes: analogue of human amylin; also called compound 43
B8: N^ε1-[(4S)-4-carboxy-4-(19-carboxynonadecanoylamino)butanoyl]-[Arg17,Pro21,Pro27,Glu35]-h-amylin (peptide)
peptide: K([γGlu-C20 diacid])CNTATCATQRLANFLRHSSPNFGAIPSSTNVGSETY-NH2
modifications: disulfide 2-7; N-terminus assumed
SMILES: CC[C@H](C)[C@H](NC(=O)[C@H](C)NC(=O)CNC(=O)[C@H](Cc1ccccc1)NC(=O)[C@H](CC(N)=O)NC(=O)[C@@H]1CCCN1C(=O)[C@H](CO)NC(=O)[C@H](CO)NC(=O)[C@H](Cc1c[nH]cn1)NC(=O)[C@H](CCCNC(=N)N)NC(=O)[C@H](CC(C)C)NC(=O)[C@H](Cc1ccccc1)NC(=O)[C@H](CC(N)=O)NC(=O)[C@H](C)NC(=O)[C@H](CC(C)C)NC(=O)[C@H](CCCNC(=N)N)NC(=O)[C@H](CCC(N)=O)NC(=O)[C@@H](NC(=O)[C@H](C)NC(=O)[C@@H]1CSSC[C@H](NC(=O)[C@@H](N)CCCCNC(=O)CC[C@H](NC(=O)CCCCCCCCCCCCCCCCCCC(=O)O)C(=O)O)C(=O)N[C@@H](CC(N)=O)C(=O)N[C@@H]([C@@H](C)O)C(=O)N[C@@H](C)C(=O)N[C@@H]([C@@H](C)O)C(=O)N1)[C@@H](C)O)C(=O)N1CCC[C@H]1C(=O)N[C@@H](CO)C(=O)N[C@@H](CO)C(=O)N[C@H](C(=O)N[C@@H](CC(N)=O)C(=O)N[C@H](C(=O)NCC(=O)N[C@@H](CO)C(=O)N[C@@H](CCC(=O)O)C(=O)N[C@H](C(=O)N[C@@H](Cc1ccc(O)cc1)C(N)=O)[C@@H](C)O)C(C)C)[C@@H](C)O
notes: analogue of human amylin; also called compound 27
B9: N^ε1-[(4S)-4-carboxy-4-(19-carboxynonadecanoylamino)butanoyl]-[Glu14,Arg17,Pro21,Pro27,Arg35]-h-amylin (peptide)
peptide: K([γGlu-C20 diacid])CNTATCATQRLAEFLRHSSPNFGAIPSSTNVGSRTY-NH2
modifications: disulfide 2-7 (inferred)
notes: analogue of human amylin; also called compound 51
B10: N^ε1-[(4S)-4-carboxy-4-(19-carboxynonadecanoylamino)butanoyl]-[Arg17,Pro21,Pro27,Lys35]-h-amylin (peptide)
peptide: K([γGlu-C20 diacid])CNTATCATQRLANFLRHSSPNFGAIPSSTNVGSKTY-NH2
modifications: disulfide 2-7 (inferred)
notes: analogue of human amylin; also called compound 35
B11: N^ε1-[(4S)-4-carboxy-4-[[(4S)-4-carboxy-4-(19-carboxynonadecanoylamino)butanoyl]amino]butanoyl]-[Asp14,Arg17,Pro22,Pro26,Asp35]-h-amylin (peptide)
peptide: K([γGlu-γGlu-C20 diacid])CNTATCATQRLADFLRHSSNPFGAPLSSTNVGSDTY-NH2
modifications: disulfide 2-7 (inferred)
notes: analogue of human amylin; also called compound 3
B12: N^ε1-[(4S)-4-carboxy-4-[[(4S)-4-carboxy-4-(19-carboxynonadecanoylamino)butanoyl]amino]butanoyl]-[Asp14,Arg17,Pro21,Pro26,Asp35]-h-amylin (peptide)
peptide: K([γGlu-γGlu-C20 diacid])CNTATCATQRLADFLRHSSPNFGAPLSSTNVGSDTY-NH2
modifications: disulfide 2-7 (inferred)
notes: analogue of human amylin; also called compound 1
B13: N^ε1-[(4S)-4-carboxy-4-[[(4S)-4-carboxy-4-(19-carboxynonadecanoylamino)butanoyl]amino]butanoyl]-[Asp14,Arg17,Pro21,Pro27,Asp35]-h-amylin (peptide)
peptide: K([γGlu-γGlu-C20 diacid])CNTATCATQRLADFLRHSSPNFGAIPSSTNVGSDTY-NH2
modifications: disulfide 2-7 (inferred)
notes: analogue of human amylin; also called compound 2
B14: N{Alpha-1}-[(4S)-4-carboxy-4-(19-carboxynonadecanoylamino)butanoyl]-[Glu14,Arg17,Pro21,Pro27,Lys34]-h-amylin (peptide)
peptide: {C20 diacid-γGlu}-KCNTATCATQRLAEFLRHSSPNFGAIPSSTNVGKNTY-NH2
modifications: disulfide 2-7 (inferred)
notes: analogue of human amylin; also called compound 36
B15: N^ε-[2-[2-[2-[[(4S)-4-carboxy-4-(19-carboxynonadecanoylamino)butanoyl]amino]ethoxy]ethoxy]acetyl]Lys[Arg1,Arg17,Pro21,Pro27,His35]-h-amylin (peptide)
peptide: K([AEEA-γGlu-C20 diacid])RCNTATCATQRLANFLRHSSPNFGAIPSSTNVGSHTY-NH2
modifications: disulfide 3-8 (inferred)
notes: analogue of human amylin extended by Lys at the N-terminus; also called compound 45
B16: N^α1-[2-[2-[2-[[2-[2-[2-[[(4S)-4-carboxy-4-(19-carboxynonadecanoylamino)butanoyl]amino]ethoxy]ethoxy]acetyl]amino]ethoxy]ethoxy]acetyl]-[Arg17,Pro21,Pro27]-h-am … (peptide)
peptide: KCNTATCATQRLANFLRHSSPNFGAIPSSTNVGSNTY
modifications: C20 diacid-gGlu-2xOEG on the alpha amino group of the N-terminal residue (Lys 1); disulfide bridge between the two Cys residues; C-terminal amide
notes: analogue of human amylin; also called compound 24

biological target: T1, rat amylin receptor (rat calcitonin …); assay: SPA competition with 125I-rat amylin, membranes of BHK cells with rat calcitonin receptor + rat RAMP3 (Assay VI)

IC50 | Binder
0.603 nM | B1
1.37 nM | B2
2.37 nM | B3
0.369 nM | B4
0.33 nM | B5
0.203 nM | B6
0.11 nM | B7
0.614 nM | B8
0.523 nM | B9
0.948 nM | B10
1 nM | B11
1.3 nM | B12
0.295 nM | B13
1.86 nM | B14
0.623 nM | B15
3.01 nM | B16

biological target: T2, human calcitonin receptor; assay: IC50 on human calcitonin receptor divided by IC50 on human amylin receptor (SPA competition)
Protocol: The resulting pellet was resuspended, homogenized and centrifuged (20.000 rpm, 15 min) in a buffer containing 20 mM Na-HEPES and 0.1 mM EDTA (pH 7.4, buffer 2). The resulting pellet was resuspended in buffer 2 and protein concentration was measured (BCA protein Assay, Pierce). The homogenate was kept cold during the whole procedure. The membranes were kept at −80° C. until use. The assay was performed in a 384 well Optiplate (PerkinElmer) in a total volume of 40 ul. Membranes were mixed with SPA beads. Final concentration of membranes 35 ng/μL final and SPA beads was 0.05 mg/well. Test-compounds were dissolved in DMSO and further diluted in assay buffer (50 mM Hepes, pH 7.4, 1 mM CaCl2, 5 mM MgCl₂, 0.1% OA and 0.02% Tween20). […] The final mixture was incubated with shaking at 400 rpm for 120 min at 25° C. prior to centrifugation (1500 rpm, 10 min). Samples were analyzed on TopCounter™ (Packard). The IC₅₀ was calculated using (one site binding competition analysis) GraphPad Prism5 as a measure of receptor affinity.
Membranes were prepared in the following way; the cells were rinsed with PBS and incubated with Versene for approximately 5 min before harvesting. The cells were flushed with PBS and the cell-suspension was centrifuged for 5 min at 1000 rpm. Cells were homogenized (Ultrathurrax) in a buffer containing 20 mM Na-HEPES and 10 mM EDTA (pH 7.4) and centrifuged at 20.000 rpm for 15 min. The resulting pellet was resuspended, homogenized and centrifuged (20.000 rpm, 15 min) in a buffer containing 20 mM Na-HEPES and 0.1 mM EDTA (pH 7.4, buffer 2). The resulting pellet was resuspended in buffer 2 and protein concentration was measured (BCA protein Assay, Pierce). The homogenate was kept cold during the whole procedure. The membranes were kept at −80° C. until use. Assay was performed in a 384 well Optiplate (PerkinElmer) in a total volume of 40 ul. Membranes were mixed with SPA beads.

Ratio hCT/hAmylin binding | Binder
30.7 | B1
49.9 | B2
20 | B3
17.7 | B4
48.9 | B5
44.9 | B6
34.7 | B7
41.3 | B8
37.5 | B9
50.3 | B10
17.3 | B11
27.6 | B12
47.5 | B13
15.7 | B14
26.8 | B15
90 | B16

biological target: T3, rat calcitonin receptor; assay: SPA competition with 125I-calcitonin, membranes of BHK cells with rat calcitonin receptor (Assay VIII)

IC50 | Binder
15.3 nM | B1
74.1 nM | B2
51.5 nM | B3
19.6 nM | B4
46.8 nM | B5
17.1 nM | B6
7.6 nM | B7
90.2 nM | B8
62 nM | B9
61.7 nM | B10
16.7 nM | B11
135 nM | B12
108 nM | B13
60.1 nM | B14
41.8 nM | B15
350 nM | B16

biological target: T3, rat calcitonin receptor; assay: IC50 on rat calcitonin receptor divided by IC50 on rat amylin receptor (SPA competition)

Ratio rCT/rAmylin binding | Binder
25.4 | B1
54 | B2
21.7 | B3
53.3 | B4
142 | B5
84.3 | B6
69.1 | B7
147 | B8
119 | B9
65.1 | B10
16.7 | B11
104 | B12
366 | B13
32.4 | B14
67.1 | B15
116 | B16

— patent US20140087995A1 (published 2014)
